Assay [1] has as its target T1, N2 peptide (non-muscle myosin neo-epitope N2 12mer sequence).
T1 construct: also called N2 12-mer peptide
T1 peptide: LMKNMDPLNDNV
In words: SPR (BIACORE X100), antibody captured by anti-human Fc, N2 peptide in solution. The source says:
(§1) The remaining sequences represent the germline sequences with the highest homology that encode productive antibody. All of the humanized sequences maintain the murine 21G6 CDR regions which are shown inside the boxes in FIG. 1. The humanized variable regions were cloned into a vector containing wild type human IgG1, human IgG1 containing a mutation at amino acid 297 (Asn 297 to Q297), human IgG4 containing a mutation at amino acid 228 (serine to proline) and human kappa light chain. Each antibody (heavy and light) combination was expressed by transient co-transfection in 293A cells (in the presence of low Ig serum). The antibody containing supernatants were collected and analyzed for binding to the N2 peptide by ELISA and BIACORE™ X100 system. All experiments were performed using a BIACORE™ X100 system. For antibody capture experiments, a CM5 chip was prepared by 10 ul/minute injection of EDC/NHS (N-ethyl-N′-(3-dimethylaminopropyl) carbodiimide (EDC), N-hydroxysuccinimide (NHS) for 7 minutes, followed by a 10 ul/minute injection of anti-human Fc (GE Lifesciences) at a concentration of 25 ug/ml in sodium acetate at pH 5 for 3 minutes. Ethanolamine-HCl was injected for 7 minutes at 10 ul/minute. The chimeric or humanized antibodies were captured onto flow cell 2 and N2 peptide at varying concentrations was flowed over flow cells 1 and 2 at a rate of 30 ul/minute with a contact time of 120 seconds and a dissociation period of 120 seconds. Complete removal of captured antibody was accomplished by regeneration with 3M MgCl2 for 30 seconds at a flow rate of 10 ul/minute. For peptide immobilized experiments, a CM5 chip was prepared by 10 ul/minute injection of EDC/NHS (N-ethyl-N′-(3-dimethylaminopropyl) carbodiimide (EDC), N-hydroxysuccinimide (NHS) for 7 minutes, followed by a 10 ul/minute injection of NEUTRAVIDIN® protein (ThermoFisher Pierce) at a concentration of 5 ug/ml in sodium acetate, pH 5 to an immobilization response of 100-200RU. Ethanolamine-HCl was injected for 7 minutes at 10 ul/minute. Biotin-labeled N2 peptide was captured on flow channel 2 with the goal of an experimental Rmax of about 50-100RU. Purified chimeric or humanized antibodies were flowed over both flow channels at a rate of 30 ul/min for a contact time of 120 seconds and allowed to dissociate for 600 seconds.
In general terms: Surface plasmon resonance follows binding to a sensor surface in real time, without labels.

Assay [2] deals with T2, Biotin-labeled N2 peptide (also: biotin label, position not given here).
T2 construct: also called immobilized N2
T2 peptide: LMKNMDPLNDNV
In words: SPR (BIACORE X100), biotin-N2 peptide on NeutrAvidin chip, antibody in solution; steady state affinity.
Description: as §1, with “The” for “The remaining sequences represent the germline sequences with the highest homology that encode productive antibody. All of the humanized sequences maintain the murine 21G6 CDR regions which are shown inside the boxes in FIG. 1. The”

For assay [3], the target named is T2, Biotin-labeled N2 peptide. In words: SPR (BIACORE X100), biotin-N2 peptide on NeutrAvidin chip, antibody in solution; kd/ka (monovalent).
Description: as §1

Assay [4] deals with T1, N2 peptide (non-muscle myosin …). In words: SPR (BIACORE X100), IgG capture and direct immobilization of antibody, N2 peptide in solution. The source says:
(§2) The remaining sequences represent the germline sequences with the highest homology that encode productive antibody. All of the humanized sequences maintain the murine 21G6 CDR regions which are shown inside the boxes in FIG. 1. The humanized variable regions were cloned into a vector containing wild type human IgG1, human IgG1 containing a mutation at amino acid 297 (Asn 297 to Q297), human IgG4 containing a mutation at amino acid 228 (serine to proline) and human kappa light chain. Each antibody (heavy and light) combination was expressed by transient co-transfection in 293A cells (in the presence of low Ig serum). The antibody containing supernatants were collected and analyzed for binding to the N2 peptide by ELISA and BIACORE™ X100 system. All experiments were performed using a BIACORE™ X100 system. […]

Assay [5] has as its target T2, Biotin-labeled N2 peptide. In words: SPR (BIACORE X100), biotin-N2 peptide on NeutrAvidin chip, antibody in solution; upper end of the printed range 2.0-5.2.
Description: as §2

Assay [6] addresses T2, Biotin-labeled N2 peptide. In words: SPR (BIACORE X100), biotin-N2 peptide on NeutrAvidin chip, antibody in solution; upper end of the printed range 3-6.5.
Description: as §2

The target in assay [7] is T2, Biotin-labeled N2 peptide. In words: SPR (BIACORE X100), biotin-N2 peptide on NeutrAvidin chip, antibody in solution; upper end of the printed range 2.0-3.2.
Description: as §2

Assay [8] concerns the target T2, Biotin-labeled N2 peptide. In words: SPR (BIACORE X100), biotin-N2 peptide on NeutrAvidin chip, antibody in solution; upper end of the printed range 8.6-9.1.
Description: as §2

Assay [9] has as its target T2, Biotin-labeled N2 peptide. In words: SPR (BIACORE X100), biotin-N2 peptide on NeutrAvidin chip, antibody in solution; upper end of the printed range 4.3-6.5.
Description: as §2

Assay [10] has as its target T2, Biotin-labeled N2 peptide. In words: SPR (BIACORE X100), biotin-N2 peptide on NeutrAvidin chip, antibody in solution; upper end of the printed range 1.5-4.3.
Description: as §2

Ends that are not written are not given here.

B1: Chimeric 21G6, human heavy chain constant region IgG4 (antibody, V domains shown)
VH: QVQLQQPGAELVKPGASVKLSCKASGYTFTSYYMYWVKQRPGQGLEWIGGINPSNGGTNFNEKFKSKATLTVDKSSSTAYMQLSSLTSEDSAVYYCTRWGYDREWFAYWGQGTLVTVSA
VL: DIVMTQAAPSVPVTPGESVSISCRSSKSLLHSNGNTYLYWFLQRPGQSPQVLIYRMSNLASGVPDRFSGSGSGTAFTLRISRVEAEDVGVYYCMQHLEYPFTFGSGTKLEIKR
notes: Human IgG4 constant region; also called CHIgG4 / Ch; ch21G6 IgG4
As usually defined, the Kd is the concentration at which binding is half-saturated. Consider B1, for which the results for the dissociation constant (Kd) in [1], in assay [2] and in [3] were 4.1 µM, 0.113 µM and 0.8 µM, respectively.

B2: H4-21G6 / L2-21G6, human IgG1 N297Q (antibody, V domains shown)
VH: QVQLVQSGAEVKKPGASVKVSCKASGYTFTSYYMYWVRQAPGQGLEWMGGINPSNGGTNFNEKFKSRVTMTTDTSTSTAYMELRSLRSDDTAVYYCTRWGYDREWFAYWGQGTLVTVSS
VL: DIVMTQSPLSLPVTPGEPASISCRSSKSLLHSNGNTYLYWFLQKPGQSPQLLIYRMSNLASGVPDRFSGSGSGTDFTLKISRVEAEDVGVYYCMQHLEYPFTFGQGTKLEIKR
notes: also called H4/L2 N297Q
B2: in assay [4], the Kd was in the range of 6 to 11 µM.

B3: H3-21G6 / L1-21G6 (Table 2, constant region not stated) (antibody, V domains shown)
VH: QVQLVQSGAEVKKPGSSVKVSCKASGYTFTSYYMYWVRQAPGQGLEWIGGINPSNGGTNFNEKFKSKATITVDKSTSTAYMELSSLRSEDTAVYYCTRWGYDREWFAYWGQGTLVTVSS
VL: DIVMTQSPATLSVSPGERATISCRSSKSLLHSNGNTYLYWFQQKPGQPPKVLIYRMSNLASGVPARFSGSGSGTDFTLTISSVEPEDFATYYCMQHLEYPFTFGGGTKLEIKR
notes: human kappa light chain; also called H3/L1
The kon is the rate constant with which the complex forms. What is called koff is a measure of how fast the partners let go of each other. In the case of B3, the kon in assay [5] was 52000 M⁻¹ s⁻¹. Further, the Kd was 0.28 µM in [2] and 0.3 µM in assay [3]. For the same molecule, the koff in assay [6] worked out at 0.0065 s⁻¹.

B4: H2-21G6 / L2-21G6 (Table 2, constant region not stated) (antibody, V domains shown)
VH: QVQLVQSGAEVKKPGASVKVSCKASGYTFTSYYMYWVRQAPGQGLEWIGGINPSNGGTNFNEKFKSKATMTVDKSTSTAYMELRSLRSDDSAVYYCTRWGYDREWFAYWGQGTLVTVSS
VL: DIVMTQSPLSLPVTPGEPASISCRSSKSLLHSNGNTYLYWFLQKPGQSPQLLIYRMSNLASGVPDRFSGSGSGTDFTLKISRVEAEDVGVYYCMQHLEYPFTFGQGTKLEIKR
notes: human kappa light chain; also called H2/L2
For the molecule B4, the figures for the Kd in [2] and in assay [3] were 0.24 µM and 0.28 to 0.42 µM, respectively. The kon in assay [7] was 32000 M⁻¹ s⁻¹. Moreover, the koff in assay [8] came out at 0.0091 s⁻¹.

B5: H2-21G6 / L1-21G6 (Table 2, constant region not stated) (antibody, V domains shown)
VH: QVQLVQSGAEVKKPGASVKVSCKASGYTFTSYYMYWVRQAPGQGLEWIGGINPSNGGTNFNEKFKSKATMTVDKSTSTAYMELRSLRSDDSAVYYCTRWGYDREWFAYWGQGTLVTVSS
VL: DIVMTQSPATLSVSPGERATISCRSSKSLLHSNGNTYLYWFQQKPGQPPKVLIYRMSNLASGVPARFSGSGSGTDFTLTISSVEPEDFATYYCMQHLEYPFTFGGGTKLEIKR
notes: human kappa light chain; also called H2/L1
As to B5, the Kd in [3] turned out to be 0.66 µM.

B6: H2-21G6 / L3-21G6 (Table 2, constant region not stated) (antibody, V domains shown)
VH: QVQLVQSGAEVKKPGASVKVSCKASGYTFTSYYMYWVRQAPGQGLEWIGGINPSNGGTNFNEKFKSKATMTVDKSTSTAYMELRSLRSDDSAVYYCTRWGYDREWFAYWGQGTLVTVSS
VL: DIVMTQTPLSLSYTPGQPASISCRSSKSLLHSNGNTYLYWFLQKPGQSPQLLIYRMSNLASGVPDRFSGSGSGTDFTLKISRVEAEDVGVYYCMQHLEYPFTFGQGTKLEIKR
notes: human kappa light chain; also called H2/L3
In the case of B6, the figures for the Kd in [2] and in assay [3] were 0.68 µM and 0.14 µM, respectively.

B7: H1-21G6 / L3-21G6 (Table 2, constant region not stated) (antibody, V domains shown)
VH: QVQLVQSGAEVVKPGASVKLSCKASGYTFTSYYMYWVKQAPGQGLEWIGGINPSNGGTNFNEKFKSKATLTVDKSASTAYMELSSLRSEDTAVYYCTRWGYDREWFAYWGQGTLVTVSS
VL: DIVMTQTPLSLSYTPGQPASISCRSSKSLLHSNGNTYLYWFLQKPGQSPQLLIYRMSNLASGVPDRFSGSGSGTDFTLKISRVEAEDVGVYYCMQHLEYPFTFGQGTKLEIKR
notes: human kappa light chain; also called H1/L3
In the case of B7, the Kd in [2] came out at 1 µM; in assay [3], 1.58 µM.

B8: H4-21G6 / L2-21G6 (Table 3B, constant region not stated) (antibody, V domains shown)
VH: QVQLVQSGAEVKKPGASVKVSCKASGYTFTSYYMYWVRQAPGQGLEWMGGINPSNGGTNFNEKFKSRVTMTTDTSTSTAYMELRSLRSDDTAVYYCTRWGYDREWFAYWGQGTLVTVSS
VL: DIVMTQSPLSLPVTPGEPASISCRSSKSLLHSNGNTYLYWFLQKPGQSPQLLIYRMSNLASGVPDRFSGSGSGTDFTLKISRVEAEDVGVYYCMQHLEYPFTFGQGTKLEIKR
notes: human kappa light chain; also called H4/L2
In the case of B8, in [3], the Kd was 0.1 µM.

B9: H1-21G6 / L1-21G6 (Table 2, constant region not stated) (antibody, V domains shown)
VH: QVQLVQSGAEVVKPGASVKLSCKASGYTFTSYYMYWVKQAPGQGLEWIGGINPSNGGTNFNEKFKSKATLTVDKSASTAYMELSSLRSEDTAVYYCTRWGYDREWFAYWGQGTLVTVSS
VL: DIVMTQSPATLSVSPGERATISCRSSKSLLHSNGNTYLYWFQQKPGQPPKVLIYRMSNLASGVPARFSGSGSGTDFTLTISSVEPEDFATYYCMQHLEYPFTFGGGTKLEIKR
notes: human kappa light chain; also called H1/L1
B9: in assay [9], the koff amounted to 0.0065 s⁻¹. Further, the kon in assay [10] was found to be 43000 M⁻¹ s⁻¹. In addition, the Kd is 0.32 µM in assay [2] and 0.1 to 0.43 µM in assay [3].

B10: H3-21G6 / L3-21G6 (Table 2, constant region not stated) (antibody, V domains shown)
VH: QVQLVQSGAEVKKPGSSVKVSCKASGYTFTSYYMYWVRQAPGQGLEWIGGINPSNGGTNFNEKFKSKATITVDKSTSTAYMELSSLRSEDTAVYYCTRWGYDREWFAYWGQGTLVTVSS
VL: DIVMTQTPLSLSYTPGQPASISCRSSKSLLHSNGNTYLYWFLQKPGQSPQLLIYRMSNLASGVPDRFSGSGSGTDFTLKISRVEAEDVGVYYCMQHLEYPFTFGQGTKLEIKR
notes: human kappa light chain; also called H3/L3
As to B10, the Kd in assay [3] worked out at 0.9 µM.

The values above are taken from patent US20160376353A1 (DECIMMUNE THERAPEUTICS, published 2016).
